What was measured:
Type in all cases: biochemical
[1] = HTP-analysis of yeast culture supernatants, no challenge (MUGal hydrolysis); conditions: activity of the variant/activity of Rd4BB (SEQ ID NO: 15)
How it was run: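 GLA variants expressed in yeast INVSc1, secreted into SD-Ura broth over 66-84 h at 30° C; clarified supernatants tested without challenge. Supernatant mixed with McIlvaine buffer pH 4.8 and 2 mM MUGal (citrate/KCl, pH 4.6), 37° C for 30-180 min, carbonate-quenched, fluorescence Ex 355/Em 448 nm.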

[2] = HTP-analysis of supernatants pretreated with acid (MUGal hydrolysis); conditions: activity of the variant/activity of Rd4BB (SEQ ID NO: 15); challenge at pH 3.7
How it was run: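 Yeast INVSc1 supernatant, GLA variants; acid challenge: McIlvaine pH 3.3-4.3, 37° C., 1-3 h. Assay: MUGal in McIlvaine pH 4.8 plus citrate pH 4.3, 37° C., 30-180 min, Na2CO3 stop, Ex 355/Em 448 nm.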

[3] = HTP-analysis of supernatants pretreated with base (MUGal hydrolysis); conditions: activity of the variant/activity of Rd4BB (SEQ ID NO: 15); challenge at pH 9.65
How it was run: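 Supernatants from INVSc1 yeast expressing GLA variants (SD-Ura, 66-84 h, 30° C) were mixed with McIlvaine buffer pH 7.0-8.2 or 200 mM sodium bicarbonate pH 9.1-9.7 and held 1-18 h at 37° C. Residual activity was then measured on MUGal at pH 4.8/4.3, 37° C, 30-180 min, by fluorescence (Ex 355/Em 448 nm).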

Row | Molecule | Relative Activity of GLA Variants After No Challenge (NC) [1] | Relative Activity of GLA Variants After Challenge at pH 3.7 [2] | Relative Activity of GLA Variants After Challenge at pH 9.65 [3]
1 | 439 (protein, Synthetic Polypeptide sequence of Variant No. 439 of mature Human GLA) LDNGLARTPTMGWLHWERFMCNLDCQEEPDSCISEKLFMEMAERMVSEGWKDAGYEYLCIDDCWMAPQRDSEGRLQADPQRFPHGIRQLANYVHSKGLKLGIYADVGNKTCAGFPGSFGYYDIDAQTFADWGVDLLKFDGCYCDSLENLADGYKHMSLALNRTGRSIVYSCEWPLYMWPFQKPNYTEIRQYCNHWRNFADIDDSWKSIKSILDWTSRNQERIVDVAGPGGWNDPDMLVIGNFGLSWDQQVTQMALWAIMAAPLFMSNDLRAISPQAKALLQDKDVIAINQDPLGKQGYQLRKGDNFEVWERPLSGDAWAVAIINRQEIGGPRSYTIPVASLGKGVACNPACFITQLLPVKRQLGFYNWTSRLKSHINPTGTVLLQLENTMQMSLKDLL | + (0.5 to 1.5 relative activity over Rd4BB (SEQ ID NO: 15)) | + (0.5 to 1.5 relative activity over Rd4BB (SEQ ID NO: 15)) | + (0.5 to 1.5 relative activity over Rd4BB (SEQ ID NO: 15))
2 | 445 (protein, Synthetic Polypeptide sequence of Variant No. 445 of mature Human GLA) LDNGLARTPTMGWLHWERFMCNLDCQEEPDSCISEKLFMEMAERMVSEGWKDAGYEYLCIDDCWMAPQRDSEGRLQADPQRFPHGIRQLANYVHSKGLKLGIYADVGNKTCAGFPGSFGYYDIDAQTFADWGVDLLKFDGCYCDSLENLADGYKHMSLALNRTGRSIVYSCEWPLYMWPFQKPNYTEIRQYCNHWRNFADIDDSWKSIKSILDWTSRNQERIVDVAGPGGWNDPDMLVIGNFGLSWDQQVTQMALWAIMAAPFFMSNDLRHISPQAKALLQDKDVIAINQDPLGKQGYQLRKGDNFEVWERPLSGDAWAVAIINRQEIGGPRSYTIPVASLGKGVACNPACFITQLLPVKRQLGFYNWTSRLKSHINPTGTVLLQLENTMQMSLKDLL | + (0.5 to 1.5 relative activity over Rd4BB (SEQ ID NO: 15)) | + (0.5 to 1.5 relative activity over Rd4BB (SEQ ID NO: 15)) | − (<0.5 relative activity over Rd4BB (SEQ ID NO: 15))
3 | 441 (protein, Synthetic Polypeptide sequence of Variant No. 441 of mature Human GLA) LDNGLARTPTMGWLHWERFMCNLDCQEEPDSCISEKLFMEMAERMVSEGWKDAGYEYLCIDDCWMAPQRDSEGRLQADPQRFPHGIRQLANYVHSKGLKLGIYADVGNKTCAGFPGSFGYYDIDAQTFADWGVDLLKFDGCYCDSLENLADGYKHMSLALNRTGRSIVYSCEWPLYMWPFQKPNYTEIRQYCNHWRNFADIDDSWKSIKSILDWTSRNQERIVDVAGPGGWNDPDMLVIGNFGLSWDQQVTQMALWAIMAAPLFMSNDLRVISPQAKALLQDKDVIAINQDPLGKQGYQLRKGDNFEVWERPLSGDAWAVAIINRQEIGGPRSYTIPVASLGKGVACNPACFITQLLPVKRQLGFYNWTSRLKSHINPTGTVLLQLENTMQMSLKDLL | + (0.5 to 1.5 relative activity over Rd4BB (SEQ ID NO: 15)) | − (<0.5 relative activity over Rd4BB (SEQ ID NO: 15)) | + (0.5 to 1.5 relative activity over Rd4BB (SEQ ID NO: 15))
4 | 443 (protein, Synthetic Polypeptide sequence of Variant No. 443 of mature Human GLA) LDNGLARTPTMGWLHWERFMCNLDCQEEPDSCISEKLFMEMAERMVSEGWKDAGYEYLCIDDCWMAPQRDSEGRLQADPQRFPHGIRQLANYVHSKGLKLGIYADVGNKTCAGFPGSFGYYDIDAQTFADWGVDLLKFDGCYCDSLENLADGYKHMSLALNRTGRSIVYSCEWPLYMWPFQKPNYTEIRQYCNHWRNFADIDDSWASIKSILDWTSRNQERIVDVAGPGGWNDPDMLVIGNFGLSWDQQVTQMASWAIMAAPLFMSNDLRHISPQAKALLQDKDVIAINQDPLGKQGYQLRKGDNFEVWERPLSGDAWAVAIINRQEIGGPRSYTIPVASLGKGVACNPACFITQLLPVKRQLGFYNWTSRLKSHINPTGTVLLQLENTMQMSLKDLL | + (0.5 to 1.5 relative activity over Rd4BB (SEQ ID NO: 15)) | +++ (>2.5 relative activity over Rd4BB (SEQ ID NO: 15)) | − (<0.5 relative activity over Rd4BB (SEQ ID NO: 15))
5 | 440 (protein, Synthetic Polypeptide sequence of Variant No. 440 of mature Human GLA) LDNGLARTPTMGWLHWERFMCNLDCQEEPDSCISEKLFMEMAERMVSEGWKDAGYEYLCIDDCWMAPQRDSEGRLQADPQRFPHGIRQLANYVHSKGLKLGIYADVGNKTCAGFPGSFGYYDIDAQTFADWGVDLLKFDGCYCDSLENLADGYKHMSLALNRTGRSIVYSCEWPLYMWPFQKPNYTEIRQYCNHWRNFADIDDSWKSIKSILDWTSRNQERIVDVAGPGGWNDPDMLVIGNFGLSWDQQVTQMALWAIMAAPCFMSNDLRHISPQAKALLQDKDVIAINQDPLGKQGYQLRKGDNFEVWERPLSGDAWAVAIINRQEIGGPRSYTIPVASLGKGVACNPACFITQLLPVKRQLGFYNWTSRLKSHINPTGTVLLQLENTMQMSLKDLL | + (0.5 to 1.5 relative activity over Rd4BB (SEQ ID NO: 15)) | + (0.5 to 1.5 relative activity over Rd4BB (SEQ ID NO: 15)) | − (<0.5 relative activity over Rd4BB (SEQ ID NO: 15))
6 | 444 (protein, Synthetic Polypeptide sequence of Variant No. 444 of mature Human GLA) LDNGLARTPTMGWLHWERFMCNLDCQEEPDSCISEKLFMEMAERMVSEGWKDAGYEYLCIDDCWMAPQRDSEGRLQADPQRFPHGIRQLANYVHSKGLKLGIYADVGNKTCAGFPGSFGYYDIDAQTFADWGVDLLKFDGCYCDSLENLADGYKHMSLALNRTGRSIVYSCEWPLYMWPFQKPNYTEIRQYCNHWRNFADIDDSWKSIKSILDWTSRNQERIVDVAGPGGWNDPDMLVIGNFGLSWDQQVTQMALWAIWAAPLFMSNDLRHISPQAKALLQDKDVIAINQDPLGKQGYQLRKGDNFEVWERPLSGDAWAVAIINRQEIGGPRSYTIPVASLGKGVACNPACFITQLLPVKRQLGFYNWTSRLKSHINPTGTVLLQLENTMQMSLKDLL | + (0.5 to 1.5 relative activity over Rd4BB (SEQ ID NO: 15)) | − (<0.5 relative activity over Rd4BB (SEQ ID NO: 15)) | + (0.5 to 1.5 relative activity over Rd4BB (SEQ ID NO: 15))
7 | 442 (protein, Synthetic Polypeptide sequence of Variant No. 442 of mature Human GLA) LDNGLARTPTMGWLHWERFMCNLDCQEEPDSCISEKLFMEMAERMVSEGWKDAGYEYLCIDDCWMAPQRDSEGRLQADPQRFPHGIRQLANYVHSKGLKLGIYADVGNKTCAGFPGSFGYYDIDAQTFADWGVDLLKFDGCYCDSLENLADGYKHMSLALNRTGRSIVYSCEWPLYMWPFQKPNYTEIRQYCNHWRNFADIDDSWKSIKSILDWTSRNQERIVDVAGPGGWNDPDMLVIGNFGLSWDQQVTQMAAWAIMAAPLFMSNDLRHISPQAKALLQDKDVIAINQDPLGKQGYQLRKGDNFEVWERPLSGDAWAVAIINRQEIGGPRSYTIPVASLGKGVACNPACFITQLLPVKRQLGFYNWTSRLKSHINPTGTVLLQLENTMQMSLKDLL | + (0.5 to 1.5 relative activity over Rd4BB (SEQ ID NO: 15)) | + (0.5 to 1.5 relative activity over Rd4BB (SEQ ID NO: 15)) | − (<0.5 relative activity over Rd4BB (SEQ ID NO: 15))
8 | 446 (protein, Synthetic Polypeptide sequence of Variant No. 446 of mature Human GLA) LDNGLARTPTMGWLHWERFMCNLDCQEEPDSCISEKLFMEMAERMVSEGWKDAGYEYLCIDDCWMAPQRDSEGRLQADPQRFPHGIRQLANYVHSKGLKLGIYADVGNKTCAGFPGSFGYYDIDAQTFADWGVDLLKFDGCYCDSLENLADGYKHMSLALNRTGRSIVYSCEWPLYMWPFQKPNYTEIRQYCNHWRNFADIDDSWKSIKSILDWTSRNQERIVDVAGPGGWNDPDMLVIGNFGLSWDQQVTQMALWAIAAAPLFMSNDLRHISPQAKALLQDKDVIAINQDPLGKQGYQLRKGDNFEVWERPLSGDAWAVAIINRQEIGGPRSYTIPVASLGKGVACNPACFITQLLPVKRQLGFYNWTSRLKSHINPTGTVLLQLENTMQMSLKDLL | + (0.5 to 1.5 relative activity over Rd4BB (SEQ ID NO: 15)) | − (<0.5 relative activity over Rd4BB (SEQ ID NO: 15)) | − (<0.5 relative activity over Rd4BB (SEQ ID NO: 15))

— patent publication US11278600B2, “Human alpha-galactosidase variants” (Codexis, Inc., priority 2014, dated 2022)
